Reference: publication PMC11277499, “Structural Basis for the Interaction between the Ezrin FERM-Domain and Human Aquaporins” (International Journal of Molecular Sciences, 2024)
Values belong to the molecule of their own block, whether it stands above or below them. Residues, ends and D or L forms follow the SMILES beside them.

Legend:
[1] = biological target: T1, human ezrin FERM-domain (residues 1–295) (Homo sapiens, UniProt P15311); test: Microscale thermophoresis (MST), binding to FERM-Alexa488; settings: Z-test for population means; for Affinity for FERM, full-length AQP compared with its C-terminal tail: significant if p < 0.05
T1 construct: human ezrin FERM-domain (residues 1–295); 8xHis-tag (N); TEV cleavage site (N); made in house; host or cells: E. coli BL21*
T1 sequence (P15311 1-295): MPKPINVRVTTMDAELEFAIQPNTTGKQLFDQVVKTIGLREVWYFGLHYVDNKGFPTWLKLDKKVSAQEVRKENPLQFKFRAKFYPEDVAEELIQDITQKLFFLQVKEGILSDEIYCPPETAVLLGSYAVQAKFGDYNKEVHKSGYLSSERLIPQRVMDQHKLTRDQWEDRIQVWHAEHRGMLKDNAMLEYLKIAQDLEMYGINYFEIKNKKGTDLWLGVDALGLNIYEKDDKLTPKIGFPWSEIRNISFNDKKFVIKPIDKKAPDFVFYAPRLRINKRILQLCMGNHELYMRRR
Protocol: For each AQP, a 1:1 dilution series was made resulting in 12 samples with a concentration range of 0.0419–86.0 μM for AQP2 and 0.029–60.6 μM for AQP5. The samples were mixed with an equal volume of FERM that had been labelled with Alexa-488, transferred to MST capillaries, and MST traces were recorded (Figure S1). From these traces, the difference in normalized fluorescence before and after heating was used to generate a binding curve for each AQP from which the dissociation constant (Kd) could be determined (Figure 3a).
This artefact became even more prominent when the AQP concentration was increased further. As a result, AQP concentrations that would lead to saturation could not be used in the case of AQP5, wherefore the estimated Kd-value should be evaluated with caution.
Next, we set out to investigate if the interaction between FERM and AQP2/AQP5 is mediated by the AQP C-termini as previously proposed. For this purpose, we expressed the AQP2 and AQP5 C-terminal tails (residues 227–271 and 228–265 for AQP2 and AQP5 respectively) as GST-fusion constructs in E. coli. The purified GST-AQP constructs were then cleaved with thrombin, allowing AQP2 and AQP5 C-termini to be separated from the GST-tag. For each AQP C-terminal peptide, a 1:1 dilution series was made resulting in 12 samples for AQP2 (0.072–294.5 μM) and 16 samples (0.001–337.5 μM) for AQP5, mixed with fluorescently labelled FERM, and MST-traces were recorded and analyzed as described above (Figure S1). […] This confirms the C-terminus as the region responsible for the FERM-interaction for both AQP2 and AQP5.
The E. coli codon-optimized gene for the human ezrin FERM-domain (residues 1–295) was synthesized (Genscript, Piscataway, NJ, USA) and cloned into pET15b using the NdeI and BamHI sites. The final construct contained an N-terminal 8xHis-tag followed by a TEV cleavage site. The plasmid was transformed into calcium-competent E. coli cells BL21* by heat shock. 2x1L LB-media supplemented with 100 μg/mL ampicillin was inoculated with a 5 mL overnight culture. […]

Ezrin = settings: co-IP and PLA, NS-SV-AC cells; ref [31]; cited from earlier work
From the text: (§1) Several mammalian AQP isoforms have been proposed to directly interact with Ezrin during trafficking.

[2] = biological target: T2, human ezrin FERM-domain (residues 1-295), labelled with Alexa-488 (human, UniProt P15311 1-295, cysteine-reactive C5 maleimide-Alexa 488 on cysteines); test: MST; AQP (full-length or C-terminal peptide) in a 1:1 dilution series mixed with FERM-Alexa488 at 0.125 uM (0.129 uM for the AQP5 C-terminus); Monolith NT.115, room temperature, LED and MST power 80%; premium capillaries (full-length AQP) or standard capillaries (peptides); three dilution series; one-to-one binding model on monomeric AQP concentration; settings: both partners purified
T2 construct: ezrin, human, FERM-domain, residues 1-295; the construct has an N-terminal 8xHis-tag followed by a TEV cleavage site; No TEV cleavage is described in the purification; codon-optimised synthetic gene in pET15b; also called FERM-Alexa488; source: E. coli BL21*, purified (His-trap)
T2 sequence (P15311 1-295): as above

Ezrin FERM-domain = settings: co-IP and pull-down; ref [30]; cited from earlier work
From the text: as §1

LIP5 = settings: compared with construct truncated immediately after the amphipathic helix; ref [36] Roche et al., 2017; cited from earlier work
From the text: Moreover, introduction of pho ...

Molecule: full-length AQP5: human aquaporin 5, untagged, recombinantly produced in Pichia pastoris
Interaction of AQP5 with ezrin (Ezrin): identified an interaction
Affinity for FERM, full-length AQP compared with its C-terminal tail [1]: significant difference between full-length AQP5 and the AQP5 C-terminal tail (p < 0.05)

B2: full-length human AQP2 (natural protein, UniProt P41181 1-271, looked up)
chain: MWELRSIAFSRAVFAEFLATLLFVFFGLGSALNWPQALPSVLQIAMAFGLGIGTLVQALGHISGAHINPAVTVACLVGCHVSVLRAAFYVAAQLLGAVAGAALLHEITPADIRGDLAVNALSNSTTAGQAVTVELFLTLQLVLCIFASTDERRGENPGTPALSIGFSVALGHLLGIHYTGCSMNPARSLAPAVVTGKFDDHWVFWIGPLVGAILGSLLYNYVLFPPAKSLSERLAVLKGLEPDTDWEEREVRRRQSVELHSPQSLPRGTKA
notes: aquaporin 2, human, full-length, with an uncleavable His-tag attached to the N-terminus; kept in detergent (0.2% NG); The Kd is fitted on the monomeric AQP concentration; also called Aquaporin 2; source: Pichia pastoris, purified (NG-solubilised membranes, HisTrap, SEC); not shown: His-tag, N-terminal, kept
Kd [2]: 7.8 ± 3.8 µM

B3: full-length AQP2: human aquaporin 2, recombinantly produced in Pichia pastoris, His-tag at the N-terminus (protein)
chain: B2 chain
modifications: left off: His-tag, N-terminal, kept
notes: human aquaporin 2, recombinantly produced in Pichia pastoris, His-tag at the N-terminus
Interaction of AQP2 C-terminal tail with ezrin FERM-domain (Ezrin FERM-domain): direct interaction
Affinity for LIP5 (LIP5): higher affinity
Affinity for FERM, full-length AQP compared with its C-terminal tail [1]: highly similar

Other lines, results leading:

Affinity for FERM, AQP5 C-terminal peptide compared with AQP2 C-terminal peptide [1]: somewhat higher (p < 0.05)
Molecule: CC[C@H](C)[C@H](NC(=O)[C@H](C)NC(=O)[C@@H](NC(=O)[C@H](CCCNC(=N)N)NC(=O)[C@H](CCC(=O)O)NC(=O)[C@H](CO)NC(=O)[C@H](CC(C)C)NC(=O)[C@H](CO)NC(=O)[C@H](CC(C)C)NC(=O)[C@H](CO)NC(=O)[C@H](CC(N)=O)NC(=O)[C@H](CO)NC(=O)CN)C(C)C)C(=O)N[C@H](C(=O)N[C@@H](CCCCN)C(=O)NCC(=O)N[C@H](C(=O)N[C@@H](Cc1ccc(O)cc1)C(=O)N[C@@H](CCC(=O)O)C(=O)N1CCC[C@H]1C(=O)N[C@@H](CC(=O)O)C(=O)N[C@@H](CCC(=O)O)C(=O)N[C@@H](CC(=O)O)C(=O)N[C@@H](Cc1c[nH]c2ccccc12)C(=O)N[C@@H](CCC(=O)O)C(=O)N[C@@H](CCC(=O)O)C(=O)N[C@@H](CCC(N)=O)C(=O)N[C@@H](CCCNC(=N)N)C(=O)N[C@@H](CCC(=O)O)C(=O)N[C@@H](CCC(=O)O)C(=O)N[C@@H](CCCNC(=N)N)C(=O)N[C@@H](CCCCN)C(=O)N[C@@H](CCCCN)C(=O)N[C@H](C(=O)N[C@@H](CCSC)C(=O)N[C@@H](CCC(=O)O)C(=O)N[C@@H](CC(C)C)C(=O)N[C@H](C(=O)N[C@H](C(=O)N[C@@H](CCCNC(=N)N)C(=O)O)[C@@H](C)O)[C@@H](C)O)[C@@H](C)O)[C@@H](C)O)[C@@H](C)CC [AQP5 C-terminal peptide] (H-GSNSLSLSERVAIIKGTYEPDEDWEEQREERKKTMELTTR-OH; N-terminus and C-terminus assumed)

Kd [2]: 8.7 ± 2.4 µM
B1: AQP2 C-terminal tail (residues 227-271) (peptide, UniProt P41181 227-271, looked up)
chain: AKSLSERLAVLKGLEPDTDWEEREVRRRQSVELHSPQSLPRGTKA
notes: aquaporin 2, human, C-terminal tail, residues 227-271; also called AQP2 C-terminal peptide; AQP2 C-terminus; source: E. coli BL21*, GST fusion purified (GSTrap), cleaved with thrombin, separated from GST

Kd [2]: 2.9 ± 0.89 µM
B4: AQP5 C-terminal tail (residues 228-265) (peptide, UniProt P55064 228-265, looked up)
chain: NSLSLSERVAIIKGTYEPDEDWEEQREERKKTMELTTR
notes: aquaporin 5, human, C-terminal tail, residues 228-265; Cloned into pET41a (SpeI, AvrII) with a thrombin site (LVPRGS) between GST and the AQP5 C-terminus; also called AQP5 C-terminal peptide; AQP5 C-terminus; source: E. coli BL21*, GST fusion purified (GSTrap), cleaved with thrombin, separated from GST
